Target: recombinant M. hyopneumoniae mhp390 (rMhp390) (Mycoplasma hyopneumoniae)
Assay: BLI; ForteBio Octet Red96; biotinylated rMhp390 immobilised on streptavidin (SA) biosensors, rNOD1 in solution; PBST (PBS, 0.02% Tween20); association 300 s, dissociation 600 s; 1:1 binding model

Substance “recombinant NOD1 (rNOD1), nucleotide-binding oligomerization domain 1 (receptor)” has a Kd of 8.14 µM.
